# Positions count from the first letter of the chain named. Names and notes keep the numbering of the source. Values joined by “and” are separate entries in the source; they are usually repeats but may differ in a detail not shown here. Equal entries are not always repeated.
# B1: huNRG1(S177-F229)(NRGE1C)::1KmodT482V, M493L)::huFcSEFL2 (Pb) (Fc fusion)
# chain: SHLVKCGEKHKSFCVNGGECFMIEGPSNPSRYLCKCPNEFTGDRCQEDFMASFGSGSATGGSGSVASSGSGSATHLDKTHTCPPCPAPELLGGPSVFLFPPKPKDTLMISRTPEVTCVVVDVSHEDPEVKFNWYVDGVEVHNAKTKPCEEQYGSTYRCVSVLTVLHQDWLNGKEYKCKVSNKALPAPIEKTISKAKGQPREPQVYTLPPSREEMTKNQVSLTCLVKGFYPSDIAVEWESNGQPENNYKTTPPVLDSDGSFFLYSKLTVDKSRWQQGNVFSCSVMHEALHNHYTQKSLSLSPGK
# B2: huNRG1(S177-Q237)(2E4)::GG::huFcSEFL2 (Pb) (Fc fusion)
# chain: SHLVKCGESDKSFCVNGGECFMVKRPSNPSRYLCKCPNEFTGDRCQKVFLASFYKAEELYQGGDKTHTCPPCPAPELLGGPSVFLFPPKPKDTLMISRTPEVTCVVVDVSHEDPEVKFNWYVDGVEVHNAKTKPCEEQYGSTYRCVSVLTVLHQDWLNGKEYKCKVSNKALPAPIEKTISKAKGQPREPQVYTLPPSREEMTKNQVSLTCLVKGFYPSDIAVEWESNGQPENNYKTTPPVLDSDGSFFLYSKLTVDKSRWQQGNVFSCSVMHEALHNHYTQKSLSLSPGK
# B3: huNRG1(S177-Q237)(1D10)::GG::huFcSEFL2 (Pb) (Fc fusion)
# chain: SHLVKCAERDKTFCVNGGECYMIEDLSIPSRYLCKCPNEFTGDRCQKDFMASFYKAEELYQGGDKTHTCPPCPAPELLGGPSVFLFPPKPKDTLMISRTPEVTCVVVDVSHEDPEVKFNWYVDGVEVHNAKTKPCEEQYGSTYRCVSVLTVLHQDWLNGKEYKCKVSNKALPAPIEKTISKAKGQPREPQVYTLPPSREEMTKNQVSLTCLVKGFYPSDIAVEWESNGQPENNYKTTPPVLDSDGSFFLYSKLTVDKSRWQQGNVFSCSVMHEALHNHYTQKSLSLSPGK
# B4: huNRG1(S177-Q237)(_200E)::GG::huFcSEFL2 (Pb) (Fc fusion)
# chain: B3 chain with R9K, D10E, Y21F, I23V, I28N, K47N, D48Y, F49V
# B5: huNRG1(S177-Q237)(3E9)::GG::huFcSEFL2 (Pb) (Fc fusion)
# chain: B3 chain with R9N, D10H, Y21F, M22V, D25G, L26S, I28N, K47D, D48V, M50L
# B6: huNRG1(S177-Q237)(3G9)::GG::huFcSEFL2 (Pb) (Fc fusion)
# chain: B2 chain with D10H, K24E, R25D, P26L, Y32F, V48D, L50M
# B7: huNRG1(S177-Q237)(3D8)::GG::huFcSEFL2 (Pb) (Fc fusion)
# chain: B3 chain with A7G, R9K, Y21F, I23V, Y32F, K47D, D48F
# B8: huNRG1(S177-Q237)(3B8)::GG::huFcSEFL2 (Pb) (Fc fusion)
# chain: B2 chain with S9R, K24E, P26S, N28I, K47D, V48F
# B9: huNRG1(S177-Q237)(3D6)::GG::huFcSEFL2 (Pb) (Fc fusion)
# chain: B3 chain with A7G, R9S, T12S, Y21F, M22V, D25G, L26S, Y32F, K47D, D48F
# B10: huNRG1(S177-Q237)(2G4)::GG::huFcSEFL2 (Pb) (Fc fusion)
# chain: B3 chain with R9N, D10E, Y21F, M22V, I23V, D25G, K47D, D48V
# B11: huNRG1(S177-Q237)(3G3)::GG::huFcSEFL2 (Pb) (Fc fusion)
# chain: B3 chain with A7G, D10E, Y21F, D25H, Y32F, K47E
# B12: huNRG1(S177-Q237)(3F2)::GG::huFcSEFL2 (Pb) (Fc fusion)
# chain: B2 chain with D10H, V23I, K24E, R25G, K47D, V48D, L50M
# B13: huNRG1(S177-Q237)(3H8)::GG::huFcSEFL2 (Pb) (Fc fusion)
# chain: B3 chain with A7G, R9K, D10H, T12S, I23V, D25G, L26S, K47E
# B14: huNRG1(S177-Q237)()200E_KDF)::GG::huFcSEFL2 (Pb) (Fc fusion)
# chain: B3 chain with R9K, D10E, Y21F, I23V, I28N
# B15: huNRG1(S177-Q237)(wt)::GG::huFcSEFL2 (Pb) (Fc fusion)
# chain: B3 chain with R9K, D10E, Y21F, I23V, E24K, I28N, K47N, D48Y, F49V
# B16: huNRG1(S177-Q237)(v80)::GG::huFcSEFL2 (Pb) (Fc fusion)
# chain: B3 chain with R9S, D10H, T12S, Y21F, M22V, D25G, L26S, F49V
# B17: huNRG1(S177-Q237)(2H7)::GG::huFcSEFL2 (Pb) (Fc fusion)
# chain: B3 chain with A7G, R9K, D10E, T12S, M22V, I23V, Y32F, D48V, F49V
# B18: huNRG1(S177-Q237)(2F2)::GG::huFcSEFL2 (Pb) (Fc fusion)
# chain: B3 chain with R9S, D10E, D25H, L26P, I28N, Y32F, K47N, D48V
# B19: huNRG1(S177-Q237)(3H5)::GG::huFcSEFL2 (Pb) (Fc fusion)
# chain: B2 chain with S9R, D10H, F21Y, M22V, K24E, N28I, Y32F, V48D
# B20: huNRG1(S177-Q237)(_FVIEDPSI)::GG::huFcSEFL2 (Pb) (Fc fusion)
# chain: B3 chain with R9K, D10E, Y21F, M22V, L26P, K47N, D48Y, F49V
# B21: huNRG1(S177-Q237)(2G3)::GG::huFcSEFL2 (Pb) (Fc fusion)
# chain: B3 chain with A7G, D10Q, T12S, I23V, D48V
# B22: huNRG1(S177-Q237)(3A7)::GG::huFcSEFL2 (Pb) (Fc fusion)
# chain: B3 chain with R9K, D10E, T12S, Y21F, M22V, D25G, L26S, Y32F, D48V, F49V
# B23: huNRG1(S177-Q237)(2E3)::GG::huFcSEFL2 (Pb) (Fc fusion)
# chain: B3 chain with A7G, R9K, D10E, T12S, D25G, Y32F, K47D, D48V
# B24: huNRG1(S177-Q237)(3E6)::GG::huFcSEFL2 (Pb) (Fc fusion)
# chain: B3 chain with R9K, D10H, T12S, M22V, D25G, L26S, Y32F
# B25: huNRG1(S177-Q237)(v80.3)::GG::huFcSEFL2 (Pb) (Fc fusion)
# chain: B3 chain with D10H, T12S, Y21F, M22V, D25G, L26S, Q46E, F49V
# Target: ErbB4 on neonatal rat cardiomyocytes (rat) (UniProt Q62956)
# Sequence (Q62956 26-1308): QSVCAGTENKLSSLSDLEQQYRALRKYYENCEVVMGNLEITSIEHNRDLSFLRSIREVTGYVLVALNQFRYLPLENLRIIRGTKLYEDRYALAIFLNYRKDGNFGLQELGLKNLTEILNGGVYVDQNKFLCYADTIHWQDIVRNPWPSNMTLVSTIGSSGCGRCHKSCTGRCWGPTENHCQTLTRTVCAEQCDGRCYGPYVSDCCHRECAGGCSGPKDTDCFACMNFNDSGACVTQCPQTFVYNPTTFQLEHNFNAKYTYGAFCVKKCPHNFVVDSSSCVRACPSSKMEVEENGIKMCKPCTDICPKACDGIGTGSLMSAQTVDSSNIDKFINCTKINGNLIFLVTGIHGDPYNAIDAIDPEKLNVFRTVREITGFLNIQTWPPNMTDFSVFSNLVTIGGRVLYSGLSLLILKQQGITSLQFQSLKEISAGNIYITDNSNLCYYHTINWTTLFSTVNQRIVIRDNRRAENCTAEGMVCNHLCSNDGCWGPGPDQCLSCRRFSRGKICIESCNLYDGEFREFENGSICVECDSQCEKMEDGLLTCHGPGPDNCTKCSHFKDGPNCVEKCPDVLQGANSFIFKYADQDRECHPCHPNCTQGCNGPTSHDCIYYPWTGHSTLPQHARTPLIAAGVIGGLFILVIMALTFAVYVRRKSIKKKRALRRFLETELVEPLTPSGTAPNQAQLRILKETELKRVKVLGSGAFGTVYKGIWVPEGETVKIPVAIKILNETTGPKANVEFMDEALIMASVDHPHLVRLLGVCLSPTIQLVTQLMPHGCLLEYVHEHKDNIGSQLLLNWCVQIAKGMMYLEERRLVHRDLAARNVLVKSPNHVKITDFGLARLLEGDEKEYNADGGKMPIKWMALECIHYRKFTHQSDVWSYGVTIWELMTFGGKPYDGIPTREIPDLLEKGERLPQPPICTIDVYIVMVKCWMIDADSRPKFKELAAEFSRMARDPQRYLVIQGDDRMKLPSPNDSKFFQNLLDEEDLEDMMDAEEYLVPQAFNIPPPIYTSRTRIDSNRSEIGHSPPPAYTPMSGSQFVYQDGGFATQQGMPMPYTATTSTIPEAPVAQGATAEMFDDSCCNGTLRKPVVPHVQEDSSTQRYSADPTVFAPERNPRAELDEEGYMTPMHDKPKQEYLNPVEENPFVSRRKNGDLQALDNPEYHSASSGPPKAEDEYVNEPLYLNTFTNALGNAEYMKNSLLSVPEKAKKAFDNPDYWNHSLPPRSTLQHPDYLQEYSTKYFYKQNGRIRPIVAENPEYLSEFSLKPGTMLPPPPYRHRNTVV
# Assay: cell-based or functional assay
CM % Agonism AVG [%],Cardiomyocyte (CM) (ErbB4) Avg EC50,Selectivity SC/CM,Binder
75.8,0.4 nM,> 10000,B1
,0.429 nM,143,B2
,0.741 nM,> 4000,B3
,0.452 nM,11,B4
70,2.68 nM,> 8500,B5
,0.581 nM,> 10000,B6
< 50,0.51 nM,> 5800,B7
< 50,1.4 nM,2150,B8
< 50,2.6 nM,> 3800,B9
< 50,2.42 nM,414,B10
70,1.84 nM,> 5400,B11
70,0.738 nM,> 10000,B12
,0.276 nM,> 10000,B13
,2 nM,60,B14
,0.275 nM and 0.6 nM,0.4 and 0.3,B15
,0.998 nM,7,B16
< 50,0.3 nM,368,B17
,0.244 nM,826,B18
,1.27 nM,> 7800,B19
,0.177 nM,24,B20
,0.208 nM,292,B21
< 50,0.366 nM,127,B22
< 50,0.658 nM,1520,B23
,0.35 nM,> 10000,B24
,33.6 nM,89,B25

# Target: ErbB3 on rat Schwann cells (rat) (UniProt Q62799)
# Sequence (Q62799 20-1339): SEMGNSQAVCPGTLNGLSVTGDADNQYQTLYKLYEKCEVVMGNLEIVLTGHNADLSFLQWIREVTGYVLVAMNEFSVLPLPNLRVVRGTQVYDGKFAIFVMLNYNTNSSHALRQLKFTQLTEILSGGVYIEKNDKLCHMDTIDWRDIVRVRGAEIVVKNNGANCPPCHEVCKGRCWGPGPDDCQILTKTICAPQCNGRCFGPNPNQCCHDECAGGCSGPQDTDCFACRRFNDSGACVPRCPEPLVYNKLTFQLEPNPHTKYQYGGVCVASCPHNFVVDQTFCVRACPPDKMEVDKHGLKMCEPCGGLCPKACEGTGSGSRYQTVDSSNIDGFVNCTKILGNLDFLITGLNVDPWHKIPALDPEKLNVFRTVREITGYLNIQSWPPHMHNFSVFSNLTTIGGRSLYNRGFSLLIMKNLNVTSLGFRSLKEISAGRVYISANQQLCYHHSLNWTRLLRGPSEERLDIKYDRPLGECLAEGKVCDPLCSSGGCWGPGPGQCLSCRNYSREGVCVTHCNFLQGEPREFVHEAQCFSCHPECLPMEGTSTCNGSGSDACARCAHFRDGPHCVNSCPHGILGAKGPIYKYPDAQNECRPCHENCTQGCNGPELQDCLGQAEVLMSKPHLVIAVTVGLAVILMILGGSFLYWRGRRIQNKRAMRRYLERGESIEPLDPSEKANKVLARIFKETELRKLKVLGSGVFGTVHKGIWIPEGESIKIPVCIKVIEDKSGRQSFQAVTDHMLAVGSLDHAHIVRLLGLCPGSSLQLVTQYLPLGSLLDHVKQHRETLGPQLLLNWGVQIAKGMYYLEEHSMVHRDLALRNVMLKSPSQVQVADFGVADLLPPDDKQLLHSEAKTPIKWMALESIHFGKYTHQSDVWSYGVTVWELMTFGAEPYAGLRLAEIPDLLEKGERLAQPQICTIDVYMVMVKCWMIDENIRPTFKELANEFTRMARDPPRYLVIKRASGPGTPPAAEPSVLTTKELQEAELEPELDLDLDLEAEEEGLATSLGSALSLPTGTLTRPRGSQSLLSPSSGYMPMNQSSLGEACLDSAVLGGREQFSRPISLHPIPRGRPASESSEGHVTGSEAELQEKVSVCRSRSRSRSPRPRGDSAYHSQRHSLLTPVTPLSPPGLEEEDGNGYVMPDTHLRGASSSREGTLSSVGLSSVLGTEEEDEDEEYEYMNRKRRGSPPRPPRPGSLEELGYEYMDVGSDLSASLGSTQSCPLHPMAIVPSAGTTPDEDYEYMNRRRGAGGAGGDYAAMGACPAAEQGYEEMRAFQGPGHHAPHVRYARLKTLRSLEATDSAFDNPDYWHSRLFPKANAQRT
# Assay: cell-based or functional assay
row,Schwann cells (SC) (ErbB3) Avg EC50,Binder
1,> 10000 nM,B1
2,61.5 nM,B2
3,> 3000 nM,B3
4,4.82 nM,B4
5,> 3000 nM,B5
6,> 10000 nM,B6
7,> 3000 nM,B7
8,3000 nM,B8
9,> 10000 nM,B9
10,1000 nM,B10
11,> 10000 nM,B11
12,> 10000 nM,B12
13,> 10000 nM,B13
14,121 nM,B14
15,0.112 nM and 0.15 nM,B15
16,6.65 nM,B16
17,110 nM,B17
18,202 nM,B18
19,> 10000 nM,B19
20,4.27 nM,B20
21,60.8 nM,B21
22,46.5 nM,B22
23,1000 nM,B23
24,> 10000 nM,B24
25,3000 nM,B25
